Legend:
T cells [1] = test: IL-2 production in response to anti-CD3 and ICAM-R proteins; assay type: cell-based, human; conditions: in comparison to the HSA control
SKW3 cells = test: Adhesion of PMA-activated SKW3 cells to plate-bound protein; assay type: cell-based, human; conditions: PMA-treated cells
Method: The partially purified shICAM-R protein was assayed for binding to SKW3 cells that were pretreated with phorbol ester as described in Example 7 to activate LFA-1-dependent adhesion. The ICAM-R protein was coated onto 96-well Immulon 4 (Dynatech) plates after adjusting the lectin eluate to 25 mM carbonate pH 9.6 and incubated overnight at 4° C. The plates were washed two times with PBS, blocked for 30 minutes at 37° C. with 200 ul/well PBS, 1% BSA, and washed again with PBS before adding cells. SKW3 cells were washed in serum-free RPMI (Gibco), labelled with Calcein-AM (Molecular Probes), and stimulated with PMA. Cells were then added to the plates and incubated for 1 hour at 37° C. The plates were inverted in prewarmed PBS, 1% BSA and were incubated for 30 minutes. The plates were then removed and half of the contents of each well was aspriated. The plates were then scanned with a fluorescence microscope and an automated fluorescence reader.
Peak fractions from wtHis6, E37His6 and mock transfectants were concentrated about 6.5 fold using Centricon 30 (Amicon) centrifugation units. The resultant concentrates were adjusted to equal vols. (0.34 ml) using PBS-D. Control soluble ICAM-R (15 ug/ml) (Example 9) in carbonate buffer pH 9.6 or in buffer D with 40 mM imidazole were made up. […]

[2] = system: Human peripheral blood lymphocytes; test: Costimulation of lymphocytes by soluble ICAM-R; assay type: cell-based
Method: shICAM-R (Example 9) was assayed for the ability to costimulate human lymphocyte activation. Human peripheral blood lymphocytes (PBL) were obtained by Ficoll-Hypaque centrifugation and 2×10^5 cells per well were incubated in the presence of either media, plate bound shICAM-R, plate bound anti-CD3 (OKT3) or a combination of plate bound anti-CD3 and shICAM-R. At 17 hours and 4 days after initiation of culture cells were removed, stained with monoclonal antibodies to human lymphocyte activation antigens and analyzed by flow cytometry.

ICAM-R = molecular target: T1, ICAM-R (Homo sapiens, UniProt P32942); test: Blocking of biotinylated murine ICR-8.1 binding
T1 construct: express the full length ICAM-1 and ICAM-R proteins, respectively; expressed in transfected cells; host or cells: COS cells, DEAE-dextran, plasmid pcDNA1AmpICAM-R
T1 sequence (P32942 30-547): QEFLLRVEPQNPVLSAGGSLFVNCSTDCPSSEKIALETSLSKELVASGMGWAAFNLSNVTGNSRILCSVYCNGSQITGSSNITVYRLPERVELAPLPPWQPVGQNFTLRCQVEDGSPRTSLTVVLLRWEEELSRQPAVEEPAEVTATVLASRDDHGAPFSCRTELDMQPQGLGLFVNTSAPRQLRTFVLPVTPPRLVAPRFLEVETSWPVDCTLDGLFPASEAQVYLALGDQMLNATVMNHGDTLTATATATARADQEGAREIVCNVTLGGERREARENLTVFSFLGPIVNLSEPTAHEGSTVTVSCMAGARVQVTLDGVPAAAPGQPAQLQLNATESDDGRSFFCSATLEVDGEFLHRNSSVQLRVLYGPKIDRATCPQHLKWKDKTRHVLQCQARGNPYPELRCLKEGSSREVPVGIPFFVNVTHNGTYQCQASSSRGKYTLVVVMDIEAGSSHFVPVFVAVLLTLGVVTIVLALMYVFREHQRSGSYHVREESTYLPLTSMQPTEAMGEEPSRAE
Excerpt: However, antibodies containing the humanized heavy chain with the Ile2 mutation show an approximate 2-fold improvement in binding over the aforementioned antibodies. In experiments in blocking the binding of biotinylated murine ICR-8.1 to ICAM-R, the miHu/VHI/HuVK and miHuVHI/MuVK antibodies compete about 2-fold less well than the murine antibody itself.

VLA-4 = VLA-4 (Homo sapiens, UniProt P05556+P13612); test: Integrin binding of ICAM-R/IgG variants
T cells [3] = test: T-cell proliferation in response to CD3 mAb with recombinant ICAM-R; assay type: cell-based, human; conditions: in comparison to the HSA control
Method: T cell costimulation by recombinant ICAM-R and CD3 antibody in the presence of monoclonal antibodies which block ICAM-R adhesion to VLA-4 was measured (Example 21F). The monoclonal antibodies tested were specific for domain 3 of ICAM-R or the α4 subunit of VLA-4.
Both variants were tested for effects on T-cell proliferation in response to CD3 mAb. […] Similar levels of costimulation were induced by the LFA-1 binding D231H-Ig or wild-type ICAM-R/Ig chimera which binds both LFA-1 and VLA-4.

LFA-1 = LFA-1 (Homo sapiens, UniProt P05107+P20701); test: Integrin binding of ICAM-R/IgG variants
Chain of LFA-1 (P20701 26-1170): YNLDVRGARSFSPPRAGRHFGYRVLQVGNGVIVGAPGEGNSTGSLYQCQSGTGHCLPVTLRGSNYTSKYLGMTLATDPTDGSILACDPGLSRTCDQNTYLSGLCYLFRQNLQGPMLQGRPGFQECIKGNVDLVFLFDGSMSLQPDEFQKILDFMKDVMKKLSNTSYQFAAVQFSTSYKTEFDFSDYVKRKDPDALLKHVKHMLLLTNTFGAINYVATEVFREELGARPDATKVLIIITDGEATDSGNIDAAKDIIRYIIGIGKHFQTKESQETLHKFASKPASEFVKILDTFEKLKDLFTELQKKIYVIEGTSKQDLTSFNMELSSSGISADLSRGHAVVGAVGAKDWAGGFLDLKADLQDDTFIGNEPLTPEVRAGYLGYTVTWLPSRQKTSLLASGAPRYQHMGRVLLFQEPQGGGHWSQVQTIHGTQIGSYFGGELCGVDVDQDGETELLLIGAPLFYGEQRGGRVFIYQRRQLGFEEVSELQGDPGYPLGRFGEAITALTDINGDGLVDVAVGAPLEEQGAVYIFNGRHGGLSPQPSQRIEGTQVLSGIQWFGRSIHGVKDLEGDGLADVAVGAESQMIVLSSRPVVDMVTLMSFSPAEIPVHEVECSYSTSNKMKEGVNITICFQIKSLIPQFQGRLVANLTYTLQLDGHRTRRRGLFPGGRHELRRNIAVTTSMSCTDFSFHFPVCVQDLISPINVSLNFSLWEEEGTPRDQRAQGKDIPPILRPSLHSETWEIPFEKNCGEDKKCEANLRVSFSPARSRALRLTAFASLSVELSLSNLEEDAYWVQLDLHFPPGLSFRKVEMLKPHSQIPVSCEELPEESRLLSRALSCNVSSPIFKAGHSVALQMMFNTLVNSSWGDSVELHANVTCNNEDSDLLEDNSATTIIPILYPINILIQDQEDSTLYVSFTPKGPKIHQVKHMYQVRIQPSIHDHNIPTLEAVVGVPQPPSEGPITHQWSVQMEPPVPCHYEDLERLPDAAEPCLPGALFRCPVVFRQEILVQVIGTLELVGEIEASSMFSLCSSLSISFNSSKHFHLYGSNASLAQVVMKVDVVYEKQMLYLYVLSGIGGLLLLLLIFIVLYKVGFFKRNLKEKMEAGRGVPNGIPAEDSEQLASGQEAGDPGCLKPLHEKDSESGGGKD
Chain of LFA-1 (P05107 23-769): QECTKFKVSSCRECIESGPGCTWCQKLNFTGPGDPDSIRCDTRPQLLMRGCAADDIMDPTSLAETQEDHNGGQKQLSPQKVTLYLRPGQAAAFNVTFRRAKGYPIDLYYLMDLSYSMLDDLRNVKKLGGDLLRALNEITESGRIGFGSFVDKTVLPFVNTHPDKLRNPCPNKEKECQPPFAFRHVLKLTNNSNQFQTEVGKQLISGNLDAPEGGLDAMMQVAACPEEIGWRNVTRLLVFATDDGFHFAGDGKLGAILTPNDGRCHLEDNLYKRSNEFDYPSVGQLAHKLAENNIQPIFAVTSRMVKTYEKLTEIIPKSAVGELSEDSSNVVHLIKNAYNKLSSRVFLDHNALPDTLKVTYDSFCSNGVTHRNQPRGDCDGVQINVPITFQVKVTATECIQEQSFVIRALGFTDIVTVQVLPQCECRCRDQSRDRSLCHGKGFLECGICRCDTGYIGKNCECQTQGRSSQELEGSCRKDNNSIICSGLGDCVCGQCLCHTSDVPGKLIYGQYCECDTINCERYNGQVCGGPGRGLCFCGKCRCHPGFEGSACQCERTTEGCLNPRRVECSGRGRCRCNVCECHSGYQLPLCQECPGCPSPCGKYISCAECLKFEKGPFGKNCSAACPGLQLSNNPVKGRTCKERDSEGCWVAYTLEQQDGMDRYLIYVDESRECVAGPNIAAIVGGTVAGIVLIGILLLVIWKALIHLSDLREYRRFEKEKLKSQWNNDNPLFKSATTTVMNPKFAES

Molecule	IL-2 production in response to CD3 mAb (T cells [1])	adhesion of SKW3 cells to plate bound protein (SKW3 cells)	expression of activation antigens ICAM-1, IL-2 receptor, transferrin receptor ([2]; 4 days, plate bound anti-CD3 0.5 ug/well and protein 100 ng/well, versus anti-CD3 alone)	expression of activation antigens ICAM-1, IL-2 receptor, transferrin receptor ([2]; protein 100 ng/well alone, versus media alone)	compete less well than murine ICR-8.1 in blocking binding of biotinylated murine ICR-8.1 (ICAM-R)	VLA-4 binding (VLA-4)	T-cell proliferation in response to CD3 mAb (T cells [3])	LFA-1 binding (LFA-1)
shICAM-R: soluble human ICAM-R truncated at amino acid 457, baculovirus expressed (protein) QEFLLRVEPQNPVLSAGGSLFVNCSTDCPSSEKIALETSLSKELVASGMGWAAFNLSNVTGNSRILCSVYCNGSQITGSSNITVYGLPERVELAPLPPWQPVGQNFTLRCQVEGGSPRTSLTVVLLRWEEELSRQPAVEEPAEVTATVLASRDDHGAPFSCRTELDMQPQGLGLFVNTSAPRQLRTFVLPVTPPRLVAPRFLEVETSWPVDCTLDGLFPASEAQVYLALGDQMLNATVMNHGDTLTATATATARADQEGAREIVCNVTLGGERREARENLTVFSFLGPIVNLSEPTAHEGSTVTVSCMAGARVQVTLDGVPAAAPGQTAQLQLNATESDDGRSFFCSATLEVDGEFLHRNSSVQLRVLYGPKIDRATCPQHLKWKDKTRHVLQCQARGNPYPELRCLKEGSSREVPVGIPFFVNVTHNGTYQCQASSSRGKYTLVVVMDIEAFSSH	enhanced IL-2 production	demonstrated adhesion of phorbol ester-activated lymphocytes	elevated levels of the activation antigens ICAM-1, IL-2 receptor and transferrin receptor	no increased levels of these activation antigens				
miHu/VHI/HuVK: ICR-8.1 miHuVHI (Val2 to Ile2) heavy chain with humanized VK (antibody, V domains shown) VH: QIQLVQSGAEVKKPGASVKVSCKASGYTFTDCIILWVRQAPGQGLEWMGKINPYFGTTTYAQKFQGRVTITADTSTSTAYMELSSLRSEDTAVYYCARKEAYPDAMDYWGQGTLVTVSS VL: DIVMTQSPLSLPVTPGEPASISCRSSQSLVHSNGDTYLHWYLQKPGQSPQLLIYKVSNRFSGVPDRFSGSGSGTDFTLKISRVEAEDVGVYYCSQSTHVPYTFGQGTKVEIK					about 2 fold			
E37T-Ig: ICAM-R/IgG variant which binds VLA-4 but not LFA-1 (protein, left off: a dimerising Fc or GST) QEFLLRVEPQNPVLSAGGSLFVNCSTDCPSSEKIALASSLSKELVASGMGWAAFNLSNVTGNSRILCSVYCNGSQITGSSNITVYGLPERVELAPLPPWQPVGQNFTLRCQVEGGSPRTSLTVVLLRWEEELSRQPAVEEPAEVTATVLASRDDHGAPFSCRTELDMQPQGLGLFVNTSAPRQLRTFVLPVTPPRLVAPRFLEVETSWPVDCTLDGLFPASEAQVYLALGDQMLNATVMNHGDTLTATATATARADQEGAREIVCNVTLGGERREARENLTVFSFLGPIVNLSEPTAHEGSTVTVSCMAGARVQVTLDGVPAAAPGQTAQLQLNATESDDGRSFFCSATLEVDGEFLHRNSSVQLRVLYGPKIDRATCPQHLKWKDKTRHVLQCQARGNPYPELRCLKEGSSREVPVGIPFFVNVTHNGTYQCQASSSRGKYTLVVVMDIEAFSSH	inhibited IL-2 production					binds VLA-4	markedly inhibited T-cell proliferation	not LFA-1
D231H-Ig: ICAM-R/IgG variant with reduced VLA-4 binding, full LFA-1 binding (protein, left off: a dimerising Fc or GST) QEFLLRVEPQNPVLSAGGSLFVNCSTDCPSSEKIALETSLSKELVASGMGWAAFNLSNVTGNSRILCSVYCNGSQITGSSNITVYGLPERVELAPLPPWQPVGQNFTLRCQVEGGSPRTSLTVVLLRWEEELSRQPAVEEPAEVTATVLASRDDHGAPFSCRTELDMQPQGLGLFVNTSAPRQLRTFVLPVTPPRLVAPRFLEVETSWPVDCTLDGLFPASEAQVYLALGHQMLNATVMNHGDTLTATATATARADQEGAREIVCNVTLGGERREARENLTVFSFLGPIVNLSEPTAHEGSTVTVSCMAGARVQVTLDGVPAAAPGQTAQLQLNATESDDGRSFFCSATLEVDGEFLHRNSSVQLRVLYGPKIDRATCPQHLKWKDKTRHVLQCQARGNPYPELRCLKEGSSREVPVGIPFFVNVTHNGTYQCQASSSRGKYTLVVVMDIEAFSSH	to a lesser extent					reduced VLA-4 binding capacity	enhanced CD3 mAb driven T-cell proliferation	retaining full LFA-1 binding capacity
